# Reference: IntAct's records for PubMed 31515488
# B1: DCC-interacting protein 13-alpha (Homo sapiens), Q9UKG1 (parent)
# chain: MPGIDKLPIEETLEDSPQTRSLLGVFEEDATAISNYMNQLYQAMHRIYDAQNELSAATHLTSKLLKEYEKQRFPLGGDDEVMSSTLQQFSKVIDELSSCHAVLSTQLADAMMFPITQFKERDLKEILTLKEVFQIASNDHDAAINRYSRLSKKRENDKVKYEVTEDVYTSRKKQHQTMMHYFCALNTLQYKKKIALLEPLLGYMQAQISFFKMGSENLNEQLEEFLANIGTSVQNVRREMDSDIETMQQTIEDLEVASDPLYVPDPDPTKFPVNRNLTRKAGYLNARNKTGLVSSTWDRQFYFTQGGNLMSQARGDVAGGLAMDIDNCSVMAVDCEDRRYCFQITSFDGKKSSILQAESKKDHEEWICTINNISKQIYLSENPEETAARVNQSALEAVTPSPSFQQRHESLRPAAGQSRPPTARTSSSGSLGSESTNLAALSLDSLVAPDTPIQFDIISPVCEDQPGQAKAFGQGGRRTNPFGESGGSTKSETEDSILHQLFIVRFLGSMEVKSDDHPDVVYETMRQILAARAIHNIFRMTESHLLVTCDCLKLIDPQTQVTRLTFPLPCVVLYATHQENKRLFGFVLRTSSGRSESNLSSVCYIFESNNEGEKICDSVGLAKQIALHAELDRRASEKQKEIERVKEKQQKELNKQKQIEKDLEEQSRLIAASSRPNQASSEGQFVVLSSSQSEESDLGEGGKKRESEA
# B2: E3 ubiquitin-protein ligase ARIH2 (Homo sapiens), O95376 (parent)
# chain: MSVDMNSQGSDSNEEDYDPNCEEEEEEEEDDPGDIEDYYVGVASDVEQQGADAFDPEEYQFTCLTYKESEGALNEHMTSLASVLKVSHSVAKLILVNFHWQVSEILDRYKSNSAQLLVEARVQPNPSKHVPTSHPPHHCAVCMQFVRKENLLSLACQHQFCRSCWEQHCSVLVKDGVGVGVSCMAQDCPLRTPEDFVFPLLPNEELREKYRRYLFRDYVESHYQLQLCPGADCPMVIRVQEPRARRVQCNRCNEVFCFKCRQMYHAPTDCATIRKWLTKCADDSETANYISAHTKDCPKCNICIEKNGGCNHMQCSKCKHDFCWMCLGDWKTHGSEYYECSRYKENPDIVNQSQQAQAREALKKYLFYFERWENHNKSLQLEAQTYQRIHEKIQERVMNNLGTWIDWQYLQNAAKLLAKCRYTLQYTYPYAYYMESGPRKKLFEYQQAQLEAEIENLSWKVERADSYDRGDLENQMHIAEQRRRTLLKDFHDT
# B3: STAM-binding protein (Homo sapiens), O95630 (parent)
# chain: MSDHGDVSLPPEDRVRALSQLGSAVEVNEDIPPRRYFRSGVEIIRMASIYSEEGNIEHAFILYNKYITLFIEKLPKHRDYKSAVIPEKKDTVKKLKEIAFPKAEELKAELLKRYTKEYTEYNEEKKKEAEELARNMAIQQELEKEKQRVAQQKQQQLEQEQFHAFEEMIRNQELEKERLKIVQEFGKVDPGLGGPLVPDLEKPSLDVFPTLTVSSIQPSDCHTTVRPAKPPVVDRSLKPGALSNSESIPTIDGLRHVVVPGRLCPQFLQLASANTARGVETCGILCGKLMRNEFTITHVLIPKQSAGSDYCNTENEEELFLIQDQQGLITLGWIHTHPTQTAFLSSVDLHTHCSYQMMLPESVAIVCSPKFQETGFFKLTDHGLEEISSCRQKGFHPHSKDPPLFCSCSHVTVVDRAVTITDLR
# partner: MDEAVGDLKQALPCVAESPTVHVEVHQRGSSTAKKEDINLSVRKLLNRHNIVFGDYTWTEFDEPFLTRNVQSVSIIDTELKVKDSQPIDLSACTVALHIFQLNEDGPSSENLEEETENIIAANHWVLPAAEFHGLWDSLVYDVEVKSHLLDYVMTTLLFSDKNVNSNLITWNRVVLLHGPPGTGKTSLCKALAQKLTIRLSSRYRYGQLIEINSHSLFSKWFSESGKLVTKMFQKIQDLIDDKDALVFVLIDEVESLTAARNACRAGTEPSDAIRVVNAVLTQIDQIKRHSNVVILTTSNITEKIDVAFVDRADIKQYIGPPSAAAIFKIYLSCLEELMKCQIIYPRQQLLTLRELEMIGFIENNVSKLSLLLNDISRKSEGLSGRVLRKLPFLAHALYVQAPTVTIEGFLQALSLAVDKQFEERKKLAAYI
# B4: Ribonuclease P protein subunit p25-like protein (Homo sapiens), Q8N5L8 (parent)
# chain: MEHYRKAGSVELPAPSPMPQLPPDTLEMRVRDGSKIRNLLGLALGRLEGGSARHVVFSGSGRAAGKAVSCAEIVKRRVPGLHQLTKLRFLQTEDSWVPASPDTGLDPLTVRRHVPAVWVLLSRDPLDPNECGYQPPGAPPGLGSMPSSSCGPRSRRRARDTRS
# partner: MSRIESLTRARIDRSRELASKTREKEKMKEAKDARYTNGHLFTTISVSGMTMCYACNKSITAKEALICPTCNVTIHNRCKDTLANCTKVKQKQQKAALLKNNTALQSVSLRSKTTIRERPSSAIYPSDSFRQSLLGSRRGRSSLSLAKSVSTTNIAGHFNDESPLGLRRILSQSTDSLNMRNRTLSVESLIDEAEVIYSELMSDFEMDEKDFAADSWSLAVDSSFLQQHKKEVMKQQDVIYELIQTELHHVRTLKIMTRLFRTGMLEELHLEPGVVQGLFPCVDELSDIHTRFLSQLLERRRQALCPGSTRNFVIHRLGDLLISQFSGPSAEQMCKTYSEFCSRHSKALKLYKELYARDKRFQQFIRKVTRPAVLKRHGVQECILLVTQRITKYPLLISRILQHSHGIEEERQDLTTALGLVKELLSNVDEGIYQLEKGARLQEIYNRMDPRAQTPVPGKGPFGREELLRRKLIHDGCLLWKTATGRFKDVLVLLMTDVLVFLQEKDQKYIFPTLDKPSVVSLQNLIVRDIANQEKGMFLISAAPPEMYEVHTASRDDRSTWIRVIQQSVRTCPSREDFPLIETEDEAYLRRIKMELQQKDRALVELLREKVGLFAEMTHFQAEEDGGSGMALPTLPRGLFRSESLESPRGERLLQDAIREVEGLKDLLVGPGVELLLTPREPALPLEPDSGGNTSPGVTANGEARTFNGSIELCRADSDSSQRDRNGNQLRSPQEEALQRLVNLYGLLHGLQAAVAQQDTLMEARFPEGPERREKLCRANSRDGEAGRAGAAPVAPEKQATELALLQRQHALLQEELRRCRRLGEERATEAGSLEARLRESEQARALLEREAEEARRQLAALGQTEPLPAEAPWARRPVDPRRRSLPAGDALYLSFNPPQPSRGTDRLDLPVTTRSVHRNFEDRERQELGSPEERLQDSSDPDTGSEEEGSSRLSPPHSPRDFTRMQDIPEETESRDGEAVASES
# B5: Isoform Long of Autophagy protein 5 (Homo sapiens), Q9H1Y0-1 (parent)
# chain: MTDDKDVLRDVWFGRIPTCFTLYQDEITEREAEPYYLLLPRVSYLTLVTDKVKKHFQKVMRQEDISEIWFEYEGTPLKWHYPIGLLFDLLASSSALPWNITVHFKSFPEKDLLHCPSKDAIEAHFMSCMKEADALKHKSQVINEMQKKDHKQLWMGLQNDRFDQFWAINRKLMEYPAEENGFRYIPFRIYQTTTERPFIQKLFRPVAADGQLHTLGDLLKEVCPSAIDPEDGEKKNQVMIHGIEPMLETPLQWLSEHLSYPDNFLHISIIPQPTD
# partner: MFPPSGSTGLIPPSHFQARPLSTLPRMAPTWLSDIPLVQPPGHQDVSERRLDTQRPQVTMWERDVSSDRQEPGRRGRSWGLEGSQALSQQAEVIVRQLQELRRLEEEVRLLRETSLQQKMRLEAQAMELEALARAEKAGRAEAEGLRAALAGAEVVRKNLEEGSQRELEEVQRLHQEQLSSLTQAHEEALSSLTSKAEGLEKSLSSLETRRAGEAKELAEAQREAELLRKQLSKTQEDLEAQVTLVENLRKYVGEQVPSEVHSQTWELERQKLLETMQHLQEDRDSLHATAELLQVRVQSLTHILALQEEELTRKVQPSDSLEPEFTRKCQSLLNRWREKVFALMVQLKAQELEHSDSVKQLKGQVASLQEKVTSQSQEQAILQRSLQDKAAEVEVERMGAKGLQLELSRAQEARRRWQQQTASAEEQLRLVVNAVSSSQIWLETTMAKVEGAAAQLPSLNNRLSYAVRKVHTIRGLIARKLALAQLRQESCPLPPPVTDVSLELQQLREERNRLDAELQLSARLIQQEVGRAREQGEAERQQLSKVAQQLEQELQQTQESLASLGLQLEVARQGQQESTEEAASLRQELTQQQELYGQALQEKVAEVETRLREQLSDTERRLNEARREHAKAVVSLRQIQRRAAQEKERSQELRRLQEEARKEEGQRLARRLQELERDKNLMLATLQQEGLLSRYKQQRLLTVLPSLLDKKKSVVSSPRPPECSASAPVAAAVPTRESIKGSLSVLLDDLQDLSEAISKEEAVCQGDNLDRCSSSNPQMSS
# B6: Zinc finger protein Aiolos (Homo sapiens), Q9UKT9 (parent)
# chain: MEDIQTNAELKSTQEQSVPAESAAVLNDYSLTKSHEMENVDSGEGPANEDEDIGDDSMKVKDEYSERDENVLKSEPMGNAEEPEIPYSYSREYNEYENIKLERHVVSFDSSRPTSGKMNCDVCGLSCISFNVLMVHKRSHTGERPFQCNQCGASFTQKGNLLRHIKLHTGEKPFKCHLCNYACQRRDALTGHLRTHSVEKPYKCEFCGRSYKQRSSLEEHKERCRTFLQSTDPGDTASAEARHIKAEMGSERALVLDRLASNVAKRKSSMPQKFIGEKRHCFDVNYNSSYMYEKESELIQTRMMDQAINNAISYLGAEALRPLVQTPPAPTSEMVPVISSMYPIALTRAEMSNGAPQELEKKSIHLPEKSVPSERGLSPNNSGHDSTDTDSNHEERQNHIYQQNHMVLSRARNGMPLLKEVPRSYELLKPPPICPRDSVKVINKEGEVMDVYRCDHCRVLFLDYVMFTIHMGCHGFRDPFECNMCGYRSHDRYEFSSHIARGEHRALLK
# partner: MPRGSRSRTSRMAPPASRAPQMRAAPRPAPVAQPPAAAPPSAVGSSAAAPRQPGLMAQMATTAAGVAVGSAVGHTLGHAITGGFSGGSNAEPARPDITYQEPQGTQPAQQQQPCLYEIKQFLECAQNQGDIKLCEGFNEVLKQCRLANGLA
# B7: Peroxisomal bifunctional enzyme (Homo sapiens), Q08426 (parent)
# chain: MAEYTRLHNALALIRLRNPPVNAISTTLLRDIKEGLQKAVIDHTIKAIVICGAEGKFSAGADIRGFSAPRTFGLTLGHVVDEIQRNEKPVVAAIQGMAFGGGLELALGCHYRIAHAEAQVGLPEVTLGLLPGARGTQLLPRLTGVPAALDLITSGRRILADEALKLGILDKVVNSDPVEEAIRFAQRVSDQPLESRRLCNKPIQSLPNMDSIFSEALLKMRRQHPGCLAQEACVRAVQAAVQYPYEVGIKKEEELFLYLLQSGQARALQYAFFAERKANKWSTPSGASWKTASARPVSSVGVVGLGTMGRGIVISFARARIPVIAVDSDKNQLATANKMITSVLEKEASKMQQSGHPWSGPKPRLTSSVKELGGVDLVIEAVFEEMSLKKQVFAELSAVCKPEAFLCTNTSALDVDEIASSTDRPHLVIGTHFFSPAHVMKLLEVIPSQYSSPTTIATVMNLSKKIKKIGVVVGNCFGFVGNRMLNPYYNQAYFLLEEGSKPEEVDQVLEEFGFKMGPFRVSDLAGLDVGWKSRKGQGLTGPTLLPGTPARKRGNRRYCPIPDVLCELGRFGQKTGKGWYQYDKPLGRIHKPDPWLSKFLSRYRKTHHIEPRTISQDEILERCLYSLINEAFRILGEGIAASPEHIDVVYLHGYGWPRHKGGPMFYASTVGLPTVLEKLQKYYRQNPDIPQLEPSDYLKKLASQGNPPLKEWQSLAGSPSSKL
# partner: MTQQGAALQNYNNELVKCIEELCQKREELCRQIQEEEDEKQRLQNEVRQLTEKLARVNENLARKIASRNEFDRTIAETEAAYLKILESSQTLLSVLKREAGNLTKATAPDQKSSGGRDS
# Variants of: B1
# Settings: with traf2_human TRAF2, Q12933
# traf2_human TRAF2, Q12933, sequence (Q12933 whole entry): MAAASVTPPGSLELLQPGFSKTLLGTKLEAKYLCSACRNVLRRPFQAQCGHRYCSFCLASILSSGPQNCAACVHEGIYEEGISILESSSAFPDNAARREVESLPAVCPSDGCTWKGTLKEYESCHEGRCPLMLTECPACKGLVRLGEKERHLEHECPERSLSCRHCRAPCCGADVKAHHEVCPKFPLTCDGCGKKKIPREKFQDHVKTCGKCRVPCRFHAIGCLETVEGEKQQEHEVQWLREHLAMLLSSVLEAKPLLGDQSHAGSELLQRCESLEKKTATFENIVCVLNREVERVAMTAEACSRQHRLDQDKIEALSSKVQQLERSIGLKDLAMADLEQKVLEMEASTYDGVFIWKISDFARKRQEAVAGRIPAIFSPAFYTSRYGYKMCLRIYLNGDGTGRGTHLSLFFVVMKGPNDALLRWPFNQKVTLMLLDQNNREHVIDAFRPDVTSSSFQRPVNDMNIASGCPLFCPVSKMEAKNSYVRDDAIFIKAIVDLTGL
row,Variant,effect of a mutation on the interaction
1,E643Q,with no effect

# Variants of: B1
# Settings: with maga9_human MAGEA9, P43362
# maga9_human MAGEA9, P43362, sequence (P43362 whole entry): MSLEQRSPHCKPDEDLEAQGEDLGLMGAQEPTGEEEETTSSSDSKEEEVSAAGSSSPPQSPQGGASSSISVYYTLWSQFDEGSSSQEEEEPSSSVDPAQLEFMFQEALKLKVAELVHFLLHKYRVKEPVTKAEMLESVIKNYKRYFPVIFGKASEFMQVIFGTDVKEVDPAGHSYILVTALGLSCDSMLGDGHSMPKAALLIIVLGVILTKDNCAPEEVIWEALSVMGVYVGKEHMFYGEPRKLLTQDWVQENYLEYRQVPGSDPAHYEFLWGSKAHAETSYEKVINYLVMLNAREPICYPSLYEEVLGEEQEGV
row,Variant,effect of a mutation on the interaction
1,E643Q,with no effect

# Variants of: B2
# Settings: with ub2l6_human UBE2L6, O14933
# ub2l6_human UBE2L6, O14933, sequence (O14933 whole entry): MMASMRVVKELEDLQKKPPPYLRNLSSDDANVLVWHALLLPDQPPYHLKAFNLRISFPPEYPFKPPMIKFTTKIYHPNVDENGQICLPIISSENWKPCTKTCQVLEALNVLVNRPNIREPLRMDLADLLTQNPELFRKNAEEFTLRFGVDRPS
row,Variant,effect of a mutation on the interaction
1,E29D,with no effect

# Variants of: B2
# Settings: with bub1_human BUB1, O43683
# bub1_human BUB1, O43683, sequence (O43683 whole entry, looked up): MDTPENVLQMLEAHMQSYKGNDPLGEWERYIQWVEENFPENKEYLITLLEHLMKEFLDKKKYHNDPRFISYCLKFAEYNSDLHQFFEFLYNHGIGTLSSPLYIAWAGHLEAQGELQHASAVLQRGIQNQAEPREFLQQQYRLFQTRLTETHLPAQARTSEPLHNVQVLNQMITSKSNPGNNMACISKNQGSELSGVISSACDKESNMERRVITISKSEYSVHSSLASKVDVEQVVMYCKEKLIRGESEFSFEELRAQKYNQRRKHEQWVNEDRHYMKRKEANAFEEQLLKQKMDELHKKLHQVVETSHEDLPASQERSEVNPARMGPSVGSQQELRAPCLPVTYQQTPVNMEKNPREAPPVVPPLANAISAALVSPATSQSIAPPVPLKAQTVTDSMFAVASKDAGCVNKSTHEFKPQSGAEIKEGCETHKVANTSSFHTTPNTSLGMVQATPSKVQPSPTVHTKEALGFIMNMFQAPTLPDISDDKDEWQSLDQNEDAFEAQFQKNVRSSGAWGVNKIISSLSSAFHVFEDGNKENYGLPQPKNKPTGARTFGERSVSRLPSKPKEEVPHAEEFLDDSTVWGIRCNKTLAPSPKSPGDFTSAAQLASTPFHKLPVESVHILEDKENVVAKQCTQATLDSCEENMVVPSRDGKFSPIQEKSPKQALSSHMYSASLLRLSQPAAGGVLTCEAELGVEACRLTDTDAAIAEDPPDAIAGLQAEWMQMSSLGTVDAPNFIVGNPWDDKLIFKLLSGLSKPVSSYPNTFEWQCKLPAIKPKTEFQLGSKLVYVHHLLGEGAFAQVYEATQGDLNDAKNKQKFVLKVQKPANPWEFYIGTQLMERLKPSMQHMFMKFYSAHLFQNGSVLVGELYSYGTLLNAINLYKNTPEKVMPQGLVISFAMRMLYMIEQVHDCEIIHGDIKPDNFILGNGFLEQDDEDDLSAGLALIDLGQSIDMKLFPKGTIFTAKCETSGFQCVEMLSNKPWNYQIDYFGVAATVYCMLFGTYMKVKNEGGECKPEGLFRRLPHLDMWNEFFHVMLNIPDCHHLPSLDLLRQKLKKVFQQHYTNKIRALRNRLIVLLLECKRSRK
row,Variant,effect of a mutation on the interaction
1,E29D,with no effect

# Variants of: B3
# Settings: with pch2_human TRIP13, Q15645
row,Variant,effect of a mutation on the interaction
1,Q155H,disrupting interaction strength
2,R255H,with no effect

# Variants of: B4
# Settings: with arhg2_human ARHGEF2, Q92974
row,Variant,effect of a mutation on the interaction
1,D127N,with no effect
2,R155Q,with no effect

# Variants of: B5
# Settings: with cchcr_human CCHCR1, Q8TD31
row,Variant,effect of a mutation on the interaction
1,K58M,with no effect

# Variants of: B6
# Settings: with chch2_human CHCHD2, Q9Y6H1
row,Variant,effect of a mutation on the interaction
1,A24V,with no effect
2,N119D,with no effect

# Variants of: B7
# Settings: with ssna1_human SSNA1, O43805
row,Variant,effect of a mutation on the interaction
1,R556G,with no effect
2,Q685K,with no effect
